Data reported in a protein production outcome set (Wang et al. 2014).

Test: label from the status in PepcDB records

Row | Sequence | protein production
1 | MSIIFILKMSKQSEQILEEQLLIQLHKLGYEKVILPNEDALLLNLKKQLEKHNKITFSKAEFDKVLNIVNKGSVFEKAKILRQRQHIIRDNGDNLYFEFLNTDYWCQNEYQVTNQLSQEGRYLNRYDVTLLINGLPLVQIELKRRGLELKEAFNQIDRYRKHSFGSGHGLYHFVQLFVISNGVNTKYFGNFGIHKQEYLQTFHWTDENNKPLNNILNGFTDTFLEPCHISKMICKYIVLHETEKKLMVLRPYQYFAVENIIKKVKENEVLNGYDINKNGYIWHTTGSGKTLTSFKASQILSNIPAIKKVVFVVDRKDLDYQTNQEYEKFSQGCVSSVGNTDDLIKKFNDPAERIIVTTIQKLNNAISGKNIYKMKAMQDQRMVFIFDECHRSQFGDTHKNIVSYFTNIQLFGFTGTPILVENANGEKTTASLFGKCLHKYVITDAIRDENVLRFSVEYIQTFKQKEHIVDLKIEQINETEVFEAPERKEAIVNYILQHHKQKTQQGKYCAMMCVQDIDSVIQYYEILKAMKKAGEHQLKIITIFSFAQNEDPLDYEIKTELSVVEEPKALYGLPPHRRELLDAYIGDFNQLYDTAHSTKDSQSFYTYYNDVAKKAKNNEMDILLVANMFLTGFDSKYLNTLYVDKNLQYHGLIQAFSRTNRTHDKNKTQGNIVCFRNLKDKTDEAITLFSNREAIDEVIVAPYETYVEEFNKAVNQLKAIVPNVDSVDDLYTEEDQLKFILAFRNMIRLHKKMSHYTEFTWDDLEIEEQSFLDYSSKYQDLKDSIVHKSDKEKTSILDDIDFELELIKKDTINVSYIVQLLFKLKVKKGKKDKEEVEKEIFNLLNTEVSLRSKRELIEKFIKENMSKIVEAEDIVDEFTRFWNEEQQKAFDELVQDENLSAERTQHLIEGYLFSEQEPLRDEILKLRNEGRPSALQAKDISNRILQRIKDFVNTFINGMNIAA | failed
2 | MSIKKLWVIPKDGYLLLLDYDSDEEEEQAHSEVKRPAFGKHENMPPHVEADEDIRDEQDSMLDKSGENVSFSEEWQRFARSVETPMENWNLLSGEQQVRNASELDLMEVQNPVTHDDGNANPEEVVGDTRKKINNKLCEQKFDMDIQKFNEEQEKSVNNYQKEQQALKLSECSQSPTMEAIEDMHEKSMEGLMNMETNNYDMLFDVDGEETL | failed
3 | MSIKYLYDRKKIAVTYGEEKYSYADIIKYVNYYSEFLDISKGDRVALMMENRPESIFSFFSIWAKKGIALSLDAGYTVEQLAFVLNDSKPKYIFVSNKIKEVVEKANEQVGNIVKIMVVDEITLPTDYVIKQEEYENDSNEDLAVIVYTSGTTGNPKGVMITYENIKTNMEGVRAVDLVTETDVILAMLPYHHIMPLCFTLILPMYMGVPIVLLTEISSASLLKALQENRVTVILGVPRVWEMLDKAIMTKINQSSLAKFMFKMASKINSMSIRKMLFSKVHKQFGGNIRLMVSGGAKIDKNILEDFRTMGFCAIQGYGMTETAPIITFNVPGRERSDSAGEVIPNVEVKIADDGEILVKGKNVMKGYYNNEQATKEAFDKDGWFHTGDLGKMDGKYLIIIGRKKEMIVLPNGKNIDPNDIEAEIIKNTDLIKEIAVTEYKEQLLAIIYPDFDQIKAKQIVNIKDAIKWEVIDKYNVTAPNYKKIHDIKIVKEELPKTRIGKIRRFMLKDLIEEKTENTDKKEAKKIIEVPAEMKEKFDIINKYMDERYQKAIDLDSHIELDLGFDSLDIVEFMNFLNSTFEITIVEQDFVENKTISAIIKLINDKAGKLVEKIDKNENLKKIIESDSNVKLPKDARYAKVLKFILSLMFRYYFKYKYRGKENLGEGAGIIVGNHQSYLDAFMLNNAFTYKELGGNYYIATALHFKSNFMKYLAGHGNIILVDANRNLKNTLQAAAKVLKSGKKLLIFPEGARTRDGQLQEFKKTFAILSKELNVPIYPFVLKGAYEAFPYNKKFPKRNNISVQFLEKIEPNDKTVEELVEETKNNIAKNYY | failed
4 | MSILDILILLAPIFFVIVLGWFAGHFGSYDAKSAKGVSTLVTKYALPAHFIAGILTTSRSEFLSQVPLMISLIIGIVGFYIIILLVCRFIFKYDLTNSSVFSLNSAQPTFAFMGIPVLGSLFGANEVAIPIAVTGIVVNAILDPLAIIIATVGESSKKNEESGDSFWKMTGKSILHGLCEPLAAAPLISMILVLVFNFTLPELGVKMLDQLGSTTSGVALFAVGVTVGIRKIKLSMPAIGIALLKVAVQPALMFLIALAIGLPADQTTKAILLVAFPGSAVAAMIATRFEKQEEETATAFVVSAILSLISLPIIIALTA | failed
5 | MSIPFSNTHYRIPQGFGNLLEGLTREILREQPDNIPAFAAAYFESLLEKREKTNFDPAEWGSKVEDRFYNNHAFEEQEPPEKSDPKQEESQISGKEEETSVTILDSSEEDKEKEEVAAVKIQAAFRGHIAREEAKKMKTNSLQNEEKEENK | failed
6 | MSIPLLEYKPSSQNQRVPGYEVPNEDTPRIYRIEDAAYDSELKELIWATYRQVFSEHVILKFFRQGNLESQLKNRAISVRDFVRGLAKSEAFKTLVIKSNSNYRLVELALKRLLGRAPYNKDEEIAWSIKIATNGWDGFVDALLDSEEYQSNFGENIVPYQRRRYKDRPFNLVTPRYGNYWRDKLESERYIEGDIKNFLELAKSIEIKTVTFTPVSTANIKIPDTTRNTTPTGIPISVNPSANFPVRLEHHHHHH | failed
7 | MSIQAPPRLLELAGQSLLRDQALSISAMEELPRVLYLPLFMEAFRRRHFQTLTVMVQAWPFTCLPLGSLMKTLHLETLKALLEGLHMLLTQKDRPRRWKLQVLDLRDVDENFWARWPGAWALSCFPETMSKRQTAEDCPRMGEHQPLKVFIDICLKEIPQDECLRYLFQWVYQRRGLVHLCCSKLVNYLTPIKHLRKSLKIIYLNSIQQLEIRNMSWPRLIRKLRCYLKEMKNLRKLVFSRCLQNPLENLELTYGYLLEEDMKCLSQYPSLGYLKHLNLSYVLLFRISLEPLGALLEKIAASLETLILEGCQIHYSQLSAILPGLSHCSQLTTFYFGRNCMSMGALKDLLCHTSGLSKLSLETYPAPEESLNSLVRVDWEIFALLRAELMCTLREVRQPKRIFIGPTPCPSCGSSPSEELELHLCC | failed
8 | MSIRNPNSTLLYRAHSRPPVKLCAPPRSLLPSRRHFSAPRAVVSYPGIRFGFTSPEVLLNRSVVAFAASHEDSGESGVEVGKEKSDIDVEDDTSKEAWKQTLESFKEQVSKMQSVSSEAYSVNSQKAMTVLKETSEQLRIQAEKAKEELGTKAKVVSEEGREYILKAAEESPSDVKEIVEAFASTEDLKNVSRANDFHVGIPYGLLLLVGGFINFMVSGSIPAIRFGVILGGALFALSLASLKSHRKGESSTKFLKGQMAIVAIIFLRELRLLLSQKSTFLGFFTTLTSGGVLGFYLYKMVVKREKGPTLEDGGEDESSDGFVRSEG | failed
9 | MSIRPATHAGSWYSNRAQELSQQLHTYLIKSTLKGPIHNARIIICPHAGYRYCGPTMAYSYASLDLNRNVKRIFILGPSHHIYFKNQILVSAFSELETPLGNLKVDTDLCKTLIQKEYPENGKKLFKPMDHDTDMAEHSLEMQLPMLVETLKWREISLDTVKVFPMMVSHNSVDVDRCIGNILSEYIKDPNNLFIVSSDFCHWGRRFQYTGYVGSKEELNDAIQEETEVEMLTARSKLSHHQVPIWQSIEIMDRYAMKTLSDTPNGERYDAWKQYLEITGNTICGEKPISVILSALSKIRDAGPSGIKFQWPNYSQSSHVTSIDDSSVSYASGYVTIG | failed
10 | MSIVIVGGNERMVCQYEDICKGYGCKAKVFAKEKGAMKKKIGAPDLMILFTGTVSHKMVNCAVEEAKKKSIPVCRCHTSSASALESILREYCALEHHHHHH | failed
11 | MSIYNSIGKQYSQTRVPDIRIVNAIINLLNLPKGSVIADIGAGTGGYSVALANQGLFVYAVEPSIVMRQQAVVHPQVEWFTGYAENLALPDKSVDGVISILAIHHFSHLEKSFQEMQRIIRDGTIVLLTFDIRLAQRIWLYDYFPFLWEDALRFLPLDEQINLLQENTKRRVEAIPFLLPHDLSDLFAAAAWRRPELYLKAEVRAGISSFALANQDLVEKGLELLTADLNNGEWIRKYGEIHHLQEIDIGYRFIYTTLDK | not failed
12 | MSKANVYQQRPEPGVHAESPLHHAELHKLAGKTAAKAGIVLREKKLLGHLVLRGDAADPAFAAAVHQALGLELPVALTLVASGETSLQWLAPDEWLLIVPGGEEYAVEQRLRQALGEELHYAVVNVSGGQTLLELSGANVRELLMKSTSYDVHPSNFPVGKAVGSIFAKSQCVIRHTGEDTWELVVRRSFADYFWLWLQDASAEYGLQVAA | failed
